Assay in all cases: cell-based or functional assay
Experiment [1] has as its target FcγRIIa on M2c macrophages (secondary ADCP assay) (UniProt P12318).
For experiment [2], the target named is FcγRIIIa on NK cells (secondary ADCC assays) (UniProt P08637).
Experiment [3] addresses human FcγRIIa-H variant on Jurkat effector cells (human) (UniProt P12318).
The target of experiment [4] is FcγRIIIa on Jurkat effector cells (UniProt P08637).

In turn, “afucosylated anti-CD20 IgG1 monoclonal antibody (obinutuzumab)” had an EC50 (nM) Mean in experiment [1] of 0.37 nM.

Take “afucosylated anti-PD-L1 IgG1 monoclonal antibody (avelumab)”: in experiment [2], the EC50 (nM) Mean stood at 0.0054 nM.

On to “fucosylated anti-CD20 IgG1 monoclonal antibody (obinutuzumab)”, for which the EC50 (nM) Mean was determined as 7.1 nM in experiment [3], 7.1 nM in experiment [4], 0.033 nM in experiment [2] and 0.82 nM in experiment [1].

For the substance “fucosylated anti-PD-L1 IgG1 monoclonal antibody (avelumab)”, the EC50 (nM) Mean in experiment [4] is 0.049 nM.

(Values after patent publication US20210317227A1.)
